B1: scFv; the commonest letter at each place (parent)
chain 1: EVKLDETGGGLVQPGRPMKLSCVASGFTFSDYWMNWVRQSPEKGLEWVAQIRNKPYNYETYYSDSVKGRFTISRDDSKSSVYLQMNNLRVEDMGIYYCTGSYYGMDYWGQGTSVTVS
chain 2: DVVMTQTPLSLPVSLGDQASISCRSSQSLVHSNGNTYLRWYLQKPGQSPKVLIYKVSNRFSGVPDRFSGSGSGTDFTLKISRVEAEDLGVYFCSQSTHVPWTFGGGTKLEIK

Assays:
[1] = variants of: B1; experiment: Kd (Tite-Seq); conditions: with fluorescein; format: scFv 4-4-20, heavy + light
[2] = variants of: B1; experiment: yeast surface expression (ratio to wild type); higher = more expressed; conditions: format: scFv 4-4-20, heavy + light

Variant | Kd [1] [µM] | yeast surface expression [2]
chain 1 Y102W M105E | 5.96 | 1.02
chain 1 S101E M105V D106P | ≥ 10 | 0.387
chain 1 Y102G G109K | ≥ 10 | 0.336
chain 1 G104A M105T | ≥ 10 | 0.685
chain 1 W33G | ≥ 10 | 0.809
chain 1 W33D | ≥ 10 | 0.986
chain 1 G109K | ≥ 10 | 0.229
chain 1 S101N | ≥ 10 | 0.886
chain 1 D31S M34C N35Y | ≥ 10 | 0.927
chain 1 M105P Y107H | ≥ 10 | 0.635
chain 1 T28N F29R | ≥ 10 | 0.996
chain 1 Y103R | 0.00444 | 0.971
chain 1 Y103L | 0.00708 | 1.08
chain 1 D31T M34Y | 0.0494 | 0.706
chain 1 F29V D31E | 1.47 | 0.753
chain 1 T28Y N35E | ≥ 10 | 0.319
chain 1 Y32S N35G V37K | ≥ 10 | 0.649
chain 1 D31R W36N | ≥ 10 | 1.06
chain 1 Y32Q W36N V37K | ≥ 10 | 0.902
chain 1 T28S V37Q | 0.00184 | 0.71
chain 1 Y103R Y107F | 0.00546 | 0.936
chain 1 F29I S30R D31E | 0.228 | 0.688
chain 1 Y102E M105A | ≥ 10 | 0.815
chain 1 Y102E M105P | ≥ 10 | 0.839

Variant | Kd [1] [µM] | yeast surface expression [2]
chain 1 S101R G109M | ≥ 10 | 0.251
chain 1 S101R G109Q | ≥ 10 | 0.201
chain 1 M105H G109T | ≥ 10 | 0.442
chain 1 G104T G109D | ≥ 10 | 0.235
chain 1 M34P N35D | ≥ 10 | 0.873
chain 1 F29N M34H | 1.63 | 0.665
chain 1 Y102N | 0.0175 | 1.04
chain 1 Y102L | 0.61 | 0.974
chain 1 T28N W33Y | ≥ 10 | 1
chain 1 M34K W36C | ≥ 10 | 0.509
chain 1 Y102K Y107R | 0.923 | 0.991
chain 1 Y103V D106H | ≥ 10 | 0.384
chain 1 F29I W33M V37P | ≥ 10 | 0.444
chain 1 Y102Q M105I | 8.56 | 0.843
chain 1 Y32N V37G | 0.0113 | 2.76
chain 1 G100C | 0.00162 | 0.893
chain 1 Y102P G104S M105H | ≥ 10 | 0.325
chain 1 G100V D106Q | ≥ 10 | 0.639
chain 1 Y107A G109Q | ≥ 10 | 0.292
chain 1 Y103P Y107E | ≥ 10 | 0.763
chain 1 Y32P W36C | ≥ 10 | 0.649
chain 1 D31E V37L | ≥ 10 | 0.735
chain 1 D31P W33S | ≥ 10 | 0.352
chain 1 D31V M34R | 0.195 | 0.17

Variant | Kd [1] [µM] | yeast surface expression [2]
chain 1 T28C Y32P | ≥ 10 | 0.707
chain 1 S101W D106I | ≥ 10 | 0.296
chain 1 Y102L G109K | ≥ 10 | 0.214
chain 1 T28M S30A W36F | 0.00158 | 0.845
chain 1 G100C S101C | ≥ 10 | 0.624
chain 1 G100H Y103Q G109A | ≥ 10 | 0.293
chain 1 Y32N M34V | ≥ 10 | 0.683
chain 1 S30N | 0.00122 | 0.889
chain 1 S30C | 0.00128 | 0.906
chain 1 W33S W36I | ≥ 10 | 0.619
chain 1 G104Q | ≥ 10 | 0.824
chain 1 G100C M105F | ≥ 10 | 0.642
chain 1 W33T M34S V37E | ≥ 10 | 0.787
chain 1 T28S S30R | 0.00265 | 0.787
chain 1 S101D M105T | ≥ 10 | 0.799
chain 1 T28N W36K | ≥ 10 | 0.56
chain 1 D31Y N35I | ≥ 10 | 0.469
chain 1 Y103A Y107T | 0.11 | 1.13
chain 1 M34P V37T | ≥ 10 | 0.323
chain 1 S101D D106N | ≥ 10 | 0.813
chain 1 S30V D31V W36E | ≥ 10 | 1.33
chain 1 F29G S30K | ≥ 10 | 1.04
chain 1 S101H Y107R | ≥ 10 | 0.581
chain 1 S101G G104Y | ≥ 10 | 0.901

Variant | Kd [1] [µM] | yeast surface expression [2]
chain 1 T28G F29R Y32K | ≥ 10 | 0.507
chain 1 G100R M105Y W108P | ≥ 10 | 0.298
chain 1 Y102N Y103C | 4.14 | 0.692
chain 1 G104F Y107Q | ≥ 10 | 0.401
chain 1 T28M D31I W33Y | ≥ 10 | 0.462
chain 1 S101D Y103K | ≥ 10 | 0.764
chain 1 G104F D106G | ≥ 10 | 0.169
chain 1 Y103S M105R | 0.176 | 0.819
chain 1 T28L F29N | ≥ 10 | 0.821
chain 1 G104C M105P | ≥ 10 | 0.256
chain 1 T28D V37Q | 0.000804 | 0.726
chain 1 G100Y W108L | ≥ 10 | 0.393
chain 1 F29N S30Q N35K | ≥ 10 | 2.76
chain 1 S30Y D31T | 0.00265 | 0.428
chain 1 Y32I M34F | 5.66 | 0.871
chain 1 M34R V37Q | 0.205 | 0.276
chain 1 T28W S30G Y32K | 1.55 | 0.576
chain 1 Y103L D106H G109F | ≥ 10 | 0.0981
chain 1 Y102H Y103C | 3.94 | 0.682
chain 1 W108E G109K | ≥ 10 | 0.403
chain 1 S101Y Y102W M105T | ≥ 10 | 0.507
chain 1 F29N S30D | ≥ 10 | 0.949
chain 1 S101V Y103V | ≥ 10 | 0.316
chain 1 D31F N35S | ≥ 10 | 0.367

Variant | Kd [1] [µM] | yeast surface expression [2]
chain 1 T28E M34R | ≥ 10 | 0.531
chain 1 F29W W33S | ≥ 10 | 0.431
chain 1 D31V Y32P | ≥ 10 | 0.759
chain 1 M34I W36F | 0.0107 | 0.811
chain 1 T28K S30H | 0.00142 | 0.814
chain 1 Y32W W36Q | ≥ 10 | 0.936
chain 1 G100Y S101E | ≥ 10 | 0.708
chain 1 D106W Y107F | ≥ 10 | 0.264
chain 1 Y102P M105S | ≥ 10 | 0.416
chain 1 N35K V37K | 6.96 | 0.0981
chain 1 Y102T D106P | ≥ 10 | 0.351
chain 1 G100Y Y102T | ≥ 10 | 0.662
chain 1 S101W G104Y | ≥ 10 | 0.203
chain 1 S101Y G109K | ≥ 10 | 0.212
chain 1 T28L D31G | 0.00128 | 0.717
chain 1 G100Y M105R | ≥ 10 | 0.513
chain 1 Y102Q D106Y | ≥ 10 | 0.268
chain 1 F29P D31I | ≥ 10 | 0.679
chain 1 S30F V37M | 0.00128 | 0.669
chain 1 M34N N35H | 0.0154 | 1.84

— the FLAb antibody collection (doi:10.7554/elife.23156)
